Columns and labels:
[1] = target: T1, human p40-His (human, UniProt P29460 23-328); experiment: BLI (Fortebio), p40-His on HIS1K sensor, antibody 5-0.31 nM, 37 °C, 1:1 fit
T1 construct: Made by Akeso Biopharma; construct limits and tag not described; also called human IL-12/IL-23 p40 protein domain; human IL-12/IL-23 p40; not shown: His tag
T1 sequence (looked up): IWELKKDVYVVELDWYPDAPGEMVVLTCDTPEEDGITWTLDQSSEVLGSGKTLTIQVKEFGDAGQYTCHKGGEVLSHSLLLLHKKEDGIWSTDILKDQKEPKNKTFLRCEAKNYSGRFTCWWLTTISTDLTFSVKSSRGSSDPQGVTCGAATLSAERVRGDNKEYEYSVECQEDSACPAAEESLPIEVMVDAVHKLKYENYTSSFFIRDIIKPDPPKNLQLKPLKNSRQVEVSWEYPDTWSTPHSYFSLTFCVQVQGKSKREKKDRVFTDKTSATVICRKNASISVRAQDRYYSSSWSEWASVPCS
Description: The sample dilution buffer for H5L9, H5L10, H5L11, H5L12, H5L14, H8L15, Ab123FR1 and ustekinumab was PBS (0.02% Tween-20, 0.1% BSA, pH 7.4). p40-His was immobilized on a HIS1K (manufacturer: Fortebio, Cat. No.: 18-5120) sensor at a concentration of 1 μg/mL for 40 s. The sensor was equilibrated in a buffer for 60 s, and the p40-His immobilized on the sensor bound to the antibody at a concentration of 5-0.31 nM (two-fold dilution) for 120 s, and then the protein dissociated in the buffer for 300 s. The sensor was refreshed with 10 mM glycine solution (pH=1.5). The detection temperature was 37° C., the detection frequency was 0.3 Hz, and the sample plate shaking rate was 500 rpm. The data were analyzed by 1:1 model fitting to obtain affinity constants.

[2] = target: T2, Human IL12 (His Tag) (human, UniProt P29459 23-219; P29460 23-328); experiment: FACS competition, IL-12-His 20 nM on 293T-IL-12Rβ1&IL-23R cells; antibody 10 µg/mL
T2 construct: Bought His-tagged heterodimer
T2 sequence (looked up) 1: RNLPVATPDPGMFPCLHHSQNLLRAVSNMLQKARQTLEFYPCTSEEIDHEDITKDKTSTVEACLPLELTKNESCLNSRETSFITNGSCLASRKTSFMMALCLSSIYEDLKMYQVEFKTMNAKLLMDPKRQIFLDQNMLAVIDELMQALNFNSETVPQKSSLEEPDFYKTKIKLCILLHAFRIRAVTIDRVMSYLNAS
T2 sequence (looked up) 2: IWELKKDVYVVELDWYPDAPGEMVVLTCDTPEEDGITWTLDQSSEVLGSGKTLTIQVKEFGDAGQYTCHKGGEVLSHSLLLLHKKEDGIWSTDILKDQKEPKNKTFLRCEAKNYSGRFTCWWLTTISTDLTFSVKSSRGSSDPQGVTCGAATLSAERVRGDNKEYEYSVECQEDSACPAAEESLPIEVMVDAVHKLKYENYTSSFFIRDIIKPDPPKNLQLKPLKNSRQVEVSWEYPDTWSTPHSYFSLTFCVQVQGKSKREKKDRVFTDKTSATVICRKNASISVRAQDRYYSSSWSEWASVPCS
Description: (§1) 200 μL of 1% PBSA was added into each sample, and the mixture was centrifuged at 700×g for 5 min to discard the supernatant. According to experiment design, correspondingly diluted antibody (highest final concentration of 30 μg/mL, 3-fold dilution, 8 concentrations in total) and human IL-12 (Sino Biological, Cat. No.: CT-050-H08H-20) (final concentration of 20 nM) were mixed at a ratio of 1:1, and a blank control was set. The mixture of antibody and human IL12 was incubated on ice for 30 min and then added to the cell precipitate at 100 μL/sample. The resulting mixture was well mixed and incubated on ice for 60 min 200 μL of 1% PBSA was added, and the mixture was centrifuged at 700×g for 5 min to discard the supernatant, and then washed twice. Alexa Fluor® 488 anti-His tag antibody (Biolegend, Cat. No.: 652509) was diluted at a ratio of 1:400 and added to each tube at 100 μL. The mixture was well mixed and incubated on ice for 40 min in the absence of light. 200 μL of 1% PBSA was added, and the mixture was centrifuged at 700×g for 5 min to discard the supernatant, and then washed twice. 1% PBSA was added at 200 μL/tube, and the cells were resuspended and transferred to a flow cytometry tube for testing.

[3] = target: T2, Human IL12 (His Tag); experiment: FACS competition, IL-12-His 20 nM on 293T-IL-12Rβ1&IL-23R cells; antibody 0.12 µg/mL
Description: as §1

[4] = target: T2, Human IL12 (His Tag); experiment: FACS competition, IL-12-His 20 nM on 293T-IL-12Rβ1&IL-23R cells; antibody 3.33 µg/mL
Description: as §1

[5] = target: T3, human IL-23 (IL-23-His-Biotin) (human, UniProt Q9NPF7 20-189; P29460 23-328, biotin label, site not stated); experiment: FACS competition, IL-23-His-Biotin 2 µg/mL on 293T-IL-12Rβ1&IL-23R cells; antibody 0.04 µg/mL
T3 construct: Akesobio lot 20161209; His-tagged and biotinylated
T3 sequence (looked up) 1: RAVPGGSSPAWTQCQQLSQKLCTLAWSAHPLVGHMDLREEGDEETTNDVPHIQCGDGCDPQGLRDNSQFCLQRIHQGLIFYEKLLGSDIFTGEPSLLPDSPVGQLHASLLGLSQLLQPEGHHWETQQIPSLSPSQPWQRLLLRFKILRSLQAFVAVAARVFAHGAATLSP
T3 sequence (looked up) 2: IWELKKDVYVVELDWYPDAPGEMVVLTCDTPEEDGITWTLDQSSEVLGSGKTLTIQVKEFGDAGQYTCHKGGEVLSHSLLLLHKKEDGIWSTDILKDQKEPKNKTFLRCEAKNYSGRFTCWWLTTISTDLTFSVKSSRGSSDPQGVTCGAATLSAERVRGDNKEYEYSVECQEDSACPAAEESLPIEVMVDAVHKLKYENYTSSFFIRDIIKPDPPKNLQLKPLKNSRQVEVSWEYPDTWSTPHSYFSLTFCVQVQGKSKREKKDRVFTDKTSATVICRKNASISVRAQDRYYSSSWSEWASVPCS
Description: (§2) 200 μL of 1% PBSA was added into each sample, and the mixture was centrifuged at 700×g for 5 min to discard the supernatant. According to experiment design, correspondingly diluted antibody (highest final concentration of 30 μg/mL, 3-fold dilution, 8 concentrations in total) and human IL-23 (IL-23-His-Biotin, Akesobio, 20161209) (final concentration of 2 μg/mL) were mixed at a ratio of 1:1, and a blank control was set. The mixture of antibody and human IL23 was incubated on ice for 30 min and then added to the cell precipitate at 100 μL/sample. The resulting mixture was well mixed and incubated on ice for 60 min. 200 μL of 1% PBSA was added, and the mixture was centrifuged at 700×g for 5 min to discard the supernatant, and then washed twice. FITC Steptavidin (Biolegend, Cat. No.: 405202) was diluted at a ratio of 1:500 and added to each tube at 100 μL. The mixture was well mixed and incubated on ice for 40 min in the absence of light. 200 μL of 1% PBSA was added, and the mixture was centrifuged at 700×g for 5 min to discard the supernatant, and then washed twice. 1% PBSA was added at 200 μL/tube, and the cells were resuspended and transferred to a flow cytometry tube for testing.

[6] = target: T3, human IL-23 (IL-23-His-Biotin); experiment: FACS competition, IL-23-His-Biotin 2 µg/mL on 293T-IL-12Rβ1&IL-23R cells; antibody 0.37 µg/mL
Description: as §2

| Binder | Kd [1] | S E (kon) [1] | S E(kdis) [1] | koff [1] | kon [1] | MFI [2] | MFI [3] | MFI [4] | MFI [5] | MFI [6] |
| --- | --- | --- | --- | --- | --- | --- | --- | --- | --- | --- |
| ustekinumab (antibody, V domains shown) VH: EVQLVQSGAEVKKPGESLKISCKGSGYSFTTYWLGWVRQMPGKGLDWIGIMSPVDSDIRYSPSFQGQVTMSVDKSITTAYLQWNSLKASDTAMYYCARRRPGQGYFDFWGQGTLVTVSS VL: DIQMTQSPSSLSASVGDRVTITCRASQGISSWLAWYQQKPEKAPKSLIYAASSLQSGVPSRFSGSGSGTDFTLTISSLQPEDFATYYCQQYNIYPYTFGQGTKLEIK | 0.0864 nM | 251000 M⁻¹ s⁻¹ | 0.000181 s⁻¹ | 0.000172 s⁻¹ | 1.99e+06 M⁻¹ s⁻¹ | 31 MFI | 137 MFI | 29.7 MFI | 216 MFI | 186 MFI |
| H5L10 (antibody, human IgG1, kappa, V domains shown, human IgG1 / kappa constant regions; also called humanized antibody H5L10) VH: EVQLVQSGAEVKKPGESLKISCQSSGYSFTTYWIGWVRQMPGQGLEWIGIMSPVDSDIRYNPMFRGQVTMSVDKSSSTAYLQWSSLKASDTAMYYCARRRPGQGYFDFWGQGTMVTVSS VL: EIVLTQSPATLSASPGERATISCRASQSVGSWLAWYQQKPGQAPRSLIYAASNLQSGIPARFSGSGSGTDFTLTISSLEPEDFAVYYCQQYNIYPYTFGQGTRLEIKR | 0.121 nM | 364000 M⁻¹ s⁻¹ | 0.000222 s⁻¹ | 0.000435 s⁻¹ | 3.58e+06 M⁻¹ s⁻¹ | 34.1 MFI | 151 MFI | 40.2 MFI | 230 MFI | 169 MFI |
| H5L9 (antibody, human IgG1, kappa, V domains shown, human IgG1 (P01857) / kappa (P01834) constant regions; also called humanized antibody H5L9) VH: EVQLVQSGAEVKKPGESLKISCQSSGYSFTTYWIGWVRQMPGQGLEWIGIMSPVDSDIRYNPMFRGQVTMSVDKSSSTAYLQWSSLKASDTAMYYCARRRPGQGYFDFWGQGTMVTVSS VL: DIQMTQSPSSLSASVGDRVTITCKASQNVGSWLAWYQQKPGKAPKSLIYSASSRQSGVPSRFSGSGSGTDFTLTISSLQPEDFATYYCQQYDIYPFTFGQGTKLEIKR | 0.849 nM | 850000 M⁻¹ s⁻¹ | 0.000307 s⁻¹ | 0.0092 s⁻¹ | 1.08e+07 M⁻¹ s⁻¹ | 134 MFI | 160 MFI | 146 MFI | 221 MFI | 206 MFI |

— patent US20220298235A1 (AKESO BIOPHARMA, published 2022)
